The results in this text go back to patent US20250264433A1 (STATE OF ISRAEL MINISTRY OF AGRICULTURE AND RURAL …, published 2025).

What is called EC50 (read off the curve) is the midpoint of the concentration-response curve. The term Kd denotes the concentration at which binding is half-saturated.

In experiment [1] the target is T1, Recombinant His-tagged EspB (EspB-His), EPEC O127:H6 strain E2348/69.
T1 construct: also called purified EspB; full-length EspB
The experiment in a line: ELISA, EspB-coated plate; mAb incubated with NaCl, curve labelled 45.6mM. A general note: In an ELISA, binding on a coated surface is turned into a signal by an enzyme label.

Experiment [2] addresses T1, Recombinant His-tagged EspB (EspB-His), …. The experiment in a line: ELISA, EspB-coated plate; mAb incubated in goat serum with 1% human serum.
Experiment [3] shares this target. Kind of experiment: ELISA, EspB-coated plate; mAb incubated in 3% milk in PBS.
For experiment [4] the target is unchanged. The experiment in a line: ELISA, EspB-coated plate; mAb incubated in horse serum with 1% human serum.
For experiment [5] the target is unchanged. Kind of experiment: ELISA, EspB-coated plate; mAb incubated with NaCl, curve labelled 274mM.
Experiment [6] shares this target. Kind of experiment: ELISA, EspB-coated plate, serially diluted mAb, anti-human IgG-HRP.
Experiment [7] shares this target. Kind of experiment: SPR (Biacore, EspB amine-coupled to a CM5 chip, mAb injected at 10-90 nM, steady-state fit); ELISA was run as well. (SPR reads the build-up and loss of mass on a sensor chip optically.)
Experiment [8] deals with T2, EspB homolog of Salmonella enterica serovar Typhimurium (Salmonella enterica serovar Typhimurium, UniProt D0ZV21 1-409).
T2 construct: also called Salmonella EspB homolog
T2 sequence: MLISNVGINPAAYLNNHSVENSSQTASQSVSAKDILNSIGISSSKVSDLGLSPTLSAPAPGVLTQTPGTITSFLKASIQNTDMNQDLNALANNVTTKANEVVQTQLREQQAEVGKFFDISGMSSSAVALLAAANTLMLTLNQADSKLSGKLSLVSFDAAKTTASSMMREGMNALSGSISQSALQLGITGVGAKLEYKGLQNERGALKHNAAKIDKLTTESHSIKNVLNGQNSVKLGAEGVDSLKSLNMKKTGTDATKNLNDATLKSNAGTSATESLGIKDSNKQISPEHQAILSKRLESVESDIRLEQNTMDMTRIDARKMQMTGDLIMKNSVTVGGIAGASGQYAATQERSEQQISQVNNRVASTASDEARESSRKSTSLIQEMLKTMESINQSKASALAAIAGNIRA
Kind of experiment: western blot of culture supernatants, mAb-EspB-B7 as primary antibody. For orientation: Immunoblotting shows a protein as a band on a membrane.

The target of experiment [9] is T3, EspB of Citrobacter rodentium DBS100 (Citrobacter rodentium).
T3 construct: also called C. rodentium EspB
Described as above.

Experiment [10] deals with T4, EspB of enterohemorrhagic E. coli (EHEC).
T4 construct: also called EHEC EspB
The experiment in a line: western blot of culture supernatants with mAb-EspB-B7.

Experiment [11] concerns the target T1, Recombinant His-tagged EspB (EspB-His), …. The experiment in a line: ELISA, EspB-coated plate; mAb incubated with NaCl, curve labelled 411mM.

B1: mAb-EspB-B7 (antibody, V domains shown)
VH: EVQLLESGGGLVQPGGSLRLSCAASGFTFSHYAMNWVRQAPGKGLEWVSAINSNGDSTYYPDTVKDRFTISRDNSKNTLYLQMNSLRAEDTAVYYCARDRRAGYFDYWGQGTLVTVSS
VL: DIVLTQPPSASGTPGQRVTISCSGSRDNIGKNYVSWYQQLPGTAPKLLIYRNNQRPSGVPDRFSGSKSGTSASLAISGLRSEDEADYYCSAWDTSLNAYVFGPGTQLTVL
notes: also called mAb-B7; anti-EspB antibody
For B1, the “EC50 (read off the curve)” value in [1] is approximately 3 nM; in experiment [2], approximately 2 nM; in experiment [3] it was approximately 5 nM; in [4], approximately 3 nM; in experiment [5], approximately 7 nM; in [6], approximately 8 nM. Further, the concentration for a half-maximal effect (EC50 (read off the curve)) in experiment [11] was approximately 10 nM. Also, the equilibrium dissociation constant (Kd) in [7] amounted to 17.4 nM. Further, the binding result in [8] is “no binding”; in experiment [9], “binds”; in experiment [10], “binds”.
